Experimental data from US20120064078.

Target: Thr90 phosphorylated Hsp90α (pT90-Hsp90α), recombinant human Hsp90α phosphorylated by recombinant protein kinase A

B1: recombinant human PP5 protein (protein phosphatase 5) (protein)
chain: MAMAEGERTECAEPPRDEPPADGALKRAEELKTQANDYFKAKDYENAIKFYSQAIELNPSNAIYYGNRSLAYLRTECYGYALGDATRAIELDKKYIKGYYRRAASNMALGKFRAALRDYETVVKVKPHDKDAKMKYQECNKIVKQKAFERAIAGDEHKRSVVDSLDIESMTIEDEYSGPKLEDGKVTISFMKELMQWYKDQKKLHRKCAYQILVQVKEVLSKLSTLVETTLKETEKITVCGDTHGQFYDLLNIFELNGLPSETNPYIFNGDFVDRGSFSVEVILTLFGFKLLYPDHFHLLRGNHETDNMNQIYGFEGEVKAKYTAQMYELFSEVFEWLPLAQCINGKVLIMHGGLFSEDGVTLDDIRKIERNRQPPDSGPMCDLLWSDPQPQNGRSISKRGVSCQFGPDVTKAFLEENNLDYIIRSHEVKAEGYEVAHGGRCVTVFSAPNYCDQMGNKASYIHLQGSDLRPQFHQFTAVPHPNVKPMAYANTLLQLGMM
- release of free phosphate (non-radioactive serine/threonine phosphatase assay): the release of free phosphate was also significantly increased, P value<0.005
